Laboratory results as given in article PMC7262448.

Key:
[1] = molecular target: mouse plasma proteins; assay: EScalate equilibrium shift assay; binding of peptide to the proteins of human or mouse plasma; percentage of peptide unbound, determined in duplicate
[2] = molecular target: human plasma proteins; assay: as above
[3] = molecular target: mouse GLP-1R (mouse) (UniProt O35659)
[4] = molecular target: human SNAP-GLP-1R (human) (UniProt P43220)
[5] = molecular target: rat GLP-1R (rat) (UniProt P32301)
[6] = molecular target: human SNAP-GLP-1R (human) (UniProt P43220); assay: FRET or BRET

Sequence of rat GLP-1R (rat) (P32301 22-463): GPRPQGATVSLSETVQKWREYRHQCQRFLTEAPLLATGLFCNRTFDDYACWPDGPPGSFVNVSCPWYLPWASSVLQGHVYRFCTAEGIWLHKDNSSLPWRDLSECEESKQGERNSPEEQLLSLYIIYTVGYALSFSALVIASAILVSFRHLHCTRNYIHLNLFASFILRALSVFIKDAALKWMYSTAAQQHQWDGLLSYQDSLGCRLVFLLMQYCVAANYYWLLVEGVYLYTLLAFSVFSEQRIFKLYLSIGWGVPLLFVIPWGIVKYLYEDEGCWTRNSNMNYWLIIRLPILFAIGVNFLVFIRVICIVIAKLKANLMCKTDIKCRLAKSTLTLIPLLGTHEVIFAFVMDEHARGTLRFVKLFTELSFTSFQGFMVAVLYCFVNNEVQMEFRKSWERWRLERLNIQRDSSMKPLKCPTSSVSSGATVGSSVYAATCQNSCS
Sequence of human SNAP-GLP-1R (human) (P43220 24-463): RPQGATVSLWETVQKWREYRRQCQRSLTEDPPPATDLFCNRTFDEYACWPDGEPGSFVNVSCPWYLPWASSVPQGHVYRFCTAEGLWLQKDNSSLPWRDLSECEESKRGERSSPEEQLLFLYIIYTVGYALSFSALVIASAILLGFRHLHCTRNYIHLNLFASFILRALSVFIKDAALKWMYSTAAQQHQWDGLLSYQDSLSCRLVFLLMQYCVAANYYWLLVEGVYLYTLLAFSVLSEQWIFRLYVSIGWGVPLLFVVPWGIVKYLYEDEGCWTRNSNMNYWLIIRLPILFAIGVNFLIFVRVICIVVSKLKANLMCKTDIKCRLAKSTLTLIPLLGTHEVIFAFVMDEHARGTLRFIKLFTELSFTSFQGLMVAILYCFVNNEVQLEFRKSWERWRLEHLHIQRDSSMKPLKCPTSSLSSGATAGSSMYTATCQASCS
Sequence of mouse GLP-1R (mouse) (O35659 22-463): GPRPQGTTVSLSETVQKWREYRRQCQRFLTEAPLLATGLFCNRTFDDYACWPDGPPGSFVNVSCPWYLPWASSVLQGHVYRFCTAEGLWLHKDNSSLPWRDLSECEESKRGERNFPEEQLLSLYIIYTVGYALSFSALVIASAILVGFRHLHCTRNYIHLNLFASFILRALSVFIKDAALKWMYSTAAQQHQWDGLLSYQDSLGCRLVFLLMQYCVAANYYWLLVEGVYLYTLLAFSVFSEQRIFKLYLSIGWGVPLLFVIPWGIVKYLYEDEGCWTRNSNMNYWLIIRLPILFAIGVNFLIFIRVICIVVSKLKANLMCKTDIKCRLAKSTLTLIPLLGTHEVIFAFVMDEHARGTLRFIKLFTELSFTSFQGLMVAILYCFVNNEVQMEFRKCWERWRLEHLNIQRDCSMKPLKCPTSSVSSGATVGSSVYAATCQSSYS

## [G^40,K^41.C16 diacid]exendin-4 (from UniProt P26349 48-87) (peptide)
[1]
  unbound fraction (fu): 2.6%
[2]
  unbound fraction (fu): 2.3%

## [D^3,G^40,K^41.C16 diacid]exendin-4 (peptide)
[3]
  cAMP, MIN6B1 cells (with IBMX), Emax: 97 % max
  cAMP, MIN6B1 cells (with IBMX), pEC50: 10.8 pEC50 (M)
[4]
  cAMP (1% FBS), HEK293-SNAP-GLP-1R cells, Emax: 97 % max
  cAMP (1% FBS), HEK293-SNAP-GLP-1R cells, pEC50: 10.4 pEC50 (M)
[5]
  cAMP, INS-1 832/3 cells (with IBMX), Emax: 101 % max
  cAMP, INS-1 832/3 cells (with IBMX), pEC50: 8.7 pEC50 (M)
[1]
  unbound fraction (fu): 2.1%
[2]
  unbound fraction (fu): 2.2%
[6]
  pKd: 8.9 pKd (M)

## D^3-exendin-4 (peptide)
[3]
  cAMP, MIN6B1 cells (with IBMX), Emax: 101 % max
  cAMP, MIN6B1 cells (with IBMX), pEC50: 11 pEC50 (M)
[4]
  cAMP (1% FBS), HEK293-SNAP-GLP-1R cells, Emax: 96 % max
  cAMP (1% FBS), HEK293-SNAP-GLP-1R cells, pEC50: 10.6 pEC50 (M)
[5]
  cAMP, INS-1 832/3 cells (with IBMX), Emax: 100 % max
  cAMP, INS-1 832/3 cells (with IBMX), pEC50: 9 pEC50 (M)
[6]
  pKd: 9.1 pKd (M)

## [F^1,G^40,K^41.C16 diacid]exendin-4 (peptide)
[3]
  cAMP, MIN6B1 cells (with IBMX), Emax: 98 % max
  cAMP, MIN6B1 cells (with IBMX), pEC50: 7.9 pEC50 (M)
[4]
  cAMP (1% FBS), HEK293-SNAP-GLP-1R cells, Emax: 49 % max
  cAMP (1% FBS), HEK293-SNAP-GLP-1R cells, pEC50: 8.2 pEC50 (M)
[5]
  cAMP, INS-1 832/3 cells (with IBMX), Emax: 41 % max
  cAMP, INS-1 832/3 cells (with IBMX), pEC50: 7.5 pEC50 (M)
[1]
  unbound fraction (fu): 2.4%
[2]
  unbound fraction (fu): 2.1%
[6]
  pKd: 8.3 pKd (M)

## F^1-exendin-4 (peptide)
[3]
  cAMP, MIN6B1 cells (with IBMX), Emax: 97 % max
  cAMP, MIN6B1 cells (with IBMX), pEC50: 9.2 pEC50 (M)
[4]
  cAMP (1% FBS), HEK293-SNAP-GLP-1R cells, Emax: 83 % max
  cAMP (1% FBS), HEK293-SNAP-GLP-1R cells, pEC50: 9 pEC50 (M)
[5]
  cAMP, INS-1 832/3 cells (with IBMX), Emax: 97 % max
  cAMP, INS-1 832/3 cells (with IBMX), pEC50: 8.4 pEC50 (M)
[6]
  pKd: 7.8 pKd (M)
